Measured values published in US20170101454A1 (Novo Nordisk, published 2017).
Starred links: 1 amine or outer side, 2 acyl side, 3 side chain; linkers in the order of their positions; H or OH if unused. Non-standard residues stand in square brackets, D forms with d. Groups on a side chain read outwards from the residue. No end group written: not given here. *: point of attachment. C18 diacid = O=C(O)CCCCCCCCCCCCCCCCC(=O)*; γGlu = O=C(O)[C@H](CCC(=O)[*:2])N[*:1]; Ac4c = NC1(C(=O)O)CCC1; AEEA = NCCOCCOCC(=O)O; Aib = CC(C)(N)C(=O)O

Assays:
human glucagon receptor [1] = biological target: T1, human glucagon receptor (human, UniProt P47871 26-477); experiment: displacement of [125I]-glucagon from BHK membranes with human glucagon receptor, SPA, no serum albumin
T1 construct: whole, on cells; reporter assay used whole cells; also called hGCGR
T1 sequence (P47871 26-477): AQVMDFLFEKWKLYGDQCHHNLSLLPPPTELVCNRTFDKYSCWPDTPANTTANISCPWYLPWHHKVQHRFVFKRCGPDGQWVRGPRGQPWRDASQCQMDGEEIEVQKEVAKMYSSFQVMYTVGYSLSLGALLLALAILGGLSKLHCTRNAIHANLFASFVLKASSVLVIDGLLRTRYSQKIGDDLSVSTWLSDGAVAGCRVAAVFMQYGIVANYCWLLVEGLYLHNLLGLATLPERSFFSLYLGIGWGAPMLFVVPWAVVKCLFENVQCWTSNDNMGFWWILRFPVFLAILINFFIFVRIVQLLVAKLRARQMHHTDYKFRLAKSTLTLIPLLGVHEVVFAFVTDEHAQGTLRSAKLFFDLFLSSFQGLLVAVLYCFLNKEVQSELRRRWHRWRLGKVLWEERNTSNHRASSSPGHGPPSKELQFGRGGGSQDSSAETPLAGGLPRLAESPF

human GLP-1 receptor [2] = biological target: T2, human GLP-1 receptor (human, UniProt P43220 24-463); experiment: displacement of [125I]-GLP-1-(7-36)NH2 from BHK membranes with human GLP-1R, SPA, no serum albumin
T2 construct: whole, on cells; reporter assay used whole cells

human glucagon receptor [3] = biological target: T1, human glucagon receptor; experiment: cell-based or functional assay
human GLP-1 receptor [4] = biological target: T2, human GLP-1 receptor; experiment: cell-based or functional assay

Binder	IC50 (human glucagon receptor [1])	IC50 (human GLP-1 receptor [2])	GlucagonR EC50 (pM), [Assay (I)(b)], CRE luciferase reporter, BHK cells (human glucagon receptor [3])	GLP-1R EC50 (pM) [Assay (I)(a)], CRE luciferase reporter, BHK cells (human GLP-1 receptor [4])
H[Aib]QGTFTSDLSKYLDARRARDFVQWLIK([AEEA-AEEA-γGlu-γGlu-γGlu-C18 diacid])T-NH2 (N-terminus assumed; SMILES CC[C@H](C)[C@H](NC(=O)[C@H](CC(C)C)NC(=O)[C@H](Cc1c[nH]c2ccccc12)NC(=O)[C@H](CCC(N)=O)NC(=O)[C@@H](NC(=O)[C@H](Cc1ccccc1)NC(=O)[C@H](CC(=O)O)NC(=O)[C@H](CCCNC(=N)N)NC(=O)[C@H](C)NC(=O)[C@H](CCCNC(=N)N)NC(=O)[C@H](CCCNC(=N)N)NC(=O)[C@H](C)NC(=O)[C@H](CC(=O)O)NC(=O)[C@H](CC(C)C)NC(=O)[C@H](Cc1ccc(O)cc1)NC(=O)[C@H](CCCCN)NC(=O)[C@H](CO)NC(=O)[C@H](CC(C)C)NC(=O)[C@H](CC(=O)O)NC(=O)[C@H](CO)NC(=O)[C@@H](NC(=O)[C@H](Cc1ccccc1)NC(=O)[C@@H](NC(=O)CNC(=O)[C@H](CCC(N)=O)NC(=O)C(C)(C)NC(=O)[C@@H](N)Cc1c[nH]cn1)[C@@H](C)O)[C@@H](C)O)C(C)C)C(=O)N[C@@H](CCCCNC(=O)COCCOCCNC(=O)COCCOCCNC(=O)CC[C@H](NC(=O)CC[C@H](NC(=O)CC[C@H](NC(=O)CCCCCCCCCCCCCCCCC(=O)O)C(=O)O)C(=O)O)C(=O)O)C(=O)N[C@H](C(N)=O)[C@@H](C)O, also called Chem. 5; Chem 5)	6.7 nM	0.1 nM	29 pM	5.5 pM
H[Ac4c]QGTFTSDLSKYLESRRAREFVQWLIK([Gly-Ser-Glu-Gly-Ser-γGlu-γGlu-C18 diacid])T-NH2 (also called Chem. 16; Chem 16)	2.7 nM	–	13 pM	5 pM
H[Aib]QGTFTSDYSKYLESRRARDFVK([AEEA-AEEA-γGlu-γGlu-γGlu-C18 diacid])WLIST-NH2 (N-terminus assumed; SMILES CC[C@H](C)[C@H](NC(=O)[C@H](CC(C)C)NC(=O)[C@H](Cc1c[nH]c2ccccc12)NC(=O)[C@H](CCCCNC(=O)COCCOCCNC(=O)COCCOCCNC(=O)CC[C@H](NC(=O)CC[C@H](NC(=O)CC[C@H](NC(=O)CCCCCCCCCCCCCCCCC(=O)O)C(=O)O)C(=O)O)C(=O)O)NC(=O)[C@@H](NC(=O)[C@H](Cc1ccccc1)NC(=O)[C@H](CC(=O)O)NC(=O)[C@H](CCCNC(=N)N)NC(=O)[C@H](C)NC(=O)[C@H](CCCNC(=N)N)NC(=O)[C@H](CCCNC(=N)N)NC(=O)[C@H](CO)NC(=O)[C@H](CCC(=O)O)NC(=O)[C@H](CC(C)C)NC(=O)[C@H](Cc1ccc(O)cc1)NC(=O)[C@H](CCCCN)NC(=O)[C@H](CO)NC(=O)[C@H](Cc1ccc(O)cc1)NC(=O)[C@H](CC(=O)O)NC(=O)[C@H](CO)NC(=O)[C@@H](NC(=O)[C@H](Cc1ccccc1)NC(=O)[C@@H](NC(=O)CNC(=O)[C@H](CCC(N)=O)NC(=O)C(C)(C)NC(=O)[C@@H](N)Cc1c[nH]cn1)[C@@H](C)O)[C@@H](C)O)C(C)C)C(=O)N[C@@H](CO)C(=O)N[C@H](C(N)=O)[C@@H](C)O, also called Chem. 11; Chem 11)	52 nM	0.5 nM	428 pM	8 pM
H[Aib]QGTFTSDYSKYLDLRRARDFVK([AEEA-AEEA-γGlu-γGlu-γGlu-C18 diacid])WLIST-NH2 (N-terminus assumed; SMILES CC[C@H](C)[C@H](NC(=O)[C@H](CC(C)C)NC(=O)[C@H](Cc1c[nH]c2ccccc12)NC(=O)[C@H](CCCCNC(=O)COCCOCCNC(=O)COCCOCCNC(=O)CC[C@H](NC(=O)CC[C@H](NC(=O)CC[C@H](NC(=O)CCCCCCCCCCCCCCCCC(=O)O)C(=O)O)C(=O)O)C(=O)O)NC(=O)[C@@H](NC(=O)[C@H](Cc1ccccc1)NC(=O)[C@H](CC(=O)O)NC(=O)[C@H](CCCNC(=N)N)NC(=O)[C@H](C)NC(=O)[C@H](CCCNC(=N)N)NC(=O)[C@H](CCCNC(=N)N)NC(=O)[C@H](CC(C)C)NC(=O)[C@H](CC(=O)O)NC(=O)[C@H](CC(C)C)NC(=O)[C@H](Cc1ccc(O)cc1)NC(=O)[C@H](CCCCN)NC(=O)[C@H](CO)NC(=O)[C@H](Cc1ccc(O)cc1)NC(=O)[C@H](CC(=O)O)NC(=O)[C@H](CO)NC(=O)[C@@H](NC(=O)[C@H](Cc1ccccc1)NC(=O)[C@@H](NC(=O)CNC(=O)[C@H](CCC(N)=O)NC(=O)C(C)(C)NC(=O)[C@@H](N)Cc1c[nH]cn1)[C@@H](C)O)[C@@H](C)O)C(C)C)C(=O)N[C@@H](CO)C(=O)N[C@H](C(N)=O)[C@@H](C)O, also called Chem. 12; Chem 12)	95.9 nM	2.8 nM	108 pM	29 pM
H[Aib]QGTFTSDYSKYLDARRARDFVK([AEEA-AEEA-γGlu-γGlu-γGlu-C18 diacid])WLIST-NH2 (N-terminus assumed; SMILES CC[C@H](C)[C@H](NC(=O)[C@H](CC(C)C)NC(=O)[C@H](Cc1c[nH]c2ccccc12)NC(=O)[C@H](CCCCNC(=O)COCCOCCNC(=O)COCCOCCNC(=O)CC[C@H](NC(=O)CC[C@H](NC(=O)CC[C@H](NC(=O)CCCCCCCCCCCCCCCCC(=O)O)C(=O)O)C(=O)O)C(=O)O)NC(=O)[C@@H](NC(=O)[C@H](Cc1ccccc1)NC(=O)[C@H](CC(=O)O)NC(=O)[C@H](CCCNC(=N)N)NC(=O)[C@H](C)NC(=O)[C@H](CCCNC(=N)N)NC(=O)[C@H](CCCNC(=N)N)NC(=O)[C@H](C)NC(=O)[C@H](CC(=O)O)NC(=O)[C@H](CC(C)C)NC(=O)[C@H](Cc1ccc(O)cc1)NC(=O)[C@H](CCCCN)NC(=O)[C@H](CO)NC(=O)[C@H](Cc1ccc(O)cc1)NC(=O)[C@H](CC(=O)O)NC(=O)[C@H](CO)NC(=O)[C@@H](NC(=O)[C@H](Cc1ccccc1)NC(=O)[C@@H](NC(=O)CNC(=O)[C@H](CCC(N)=O)NC(=O)C(C)(C)NC(=O)[C@@H](N)Cc1c[nH]cn1)[C@@H](C)O)[C@@H](C)O)C(C)C)C(=O)N[C@@H](CO)C(=O)N[C@H](C(N)=O)[C@@H](C)O, also called Chem. 1; Chem 1)	11.3 nM	0.9 nM	17.5 pM	3.5 pM

Now from value to binder:

IC50 (human glucagon receptor [1])	IC50 (human GLP-1 receptor [2])	GlucagonR EC50 (pM), [Assay (I)(b)], CRE luciferase reporter, BHK cells (human glucagon receptor [3])	GLP-1R EC50 (pM) [Assay (I)(a)], CRE luciferase reporter, BHK cells (human GLP-1 receptor [4])	Binder
60 nM	2.2 nM	–	–	H[Aib]QGTFTSDYSKYLESRRAQDFVAWLISK([γGlu-γGlu-AEEA-AEEA-γGlu-C18 diacid])-NH2 (N-terminus assumed; SMILES CC[C@H](C)[C@H](NC(=O)[C@H](CC(C)C)NC(=O)[C@H](Cc1c[nH]c2ccccc12)NC(=O)[C@H](C)NC(=O)[C@@H](NC(=O)[C@H](Cc1ccccc1)NC(=O)[C@H](CC(=O)O)NC(=O)[C@H](CCC(N)=O)NC(=O)[C@H](C)NC(=O)[C@H](CCCNC(=N)N)NC(=O)[C@H](CCCNC(=N)N)NC(=O)[C@H](CO)NC(=O)[C@H](CCC(=O)O)NC(=O)[C@H](CC(C)C)NC(=O)[C@H](Cc1ccc(O)cc1)NC(=O)[C@H](CCCCN)NC(=O)[C@H](CO)NC(=O)[C@H](Cc1ccc(O)cc1)NC(=O)[C@H](CC(=O)O)NC(=O)[C@H](CO)NC(=O)[C@@H](NC(=O)[C@H](Cc1ccccc1)NC(=O)[C@@H](NC(=O)CNC(=O)[C@H](CCC(N)=O)NC(=O)C(C)(C)NC(=O)[C@@H](N)Cc1c[nH]cn1)[C@@H](C)O)[C@@H](C)O)C(C)C)C(=O)N[C@@H](CO)C(=O)N[C@@H](CCCCNC(=O)CC[C@H](NC(=O)CC[C@H](NC(=O)COCCOCCNC(=O)COCCOCCNC(=O)CC[C@H](NC(=O)CCCCCCCCCCCCCCCCC(=O)O)C(=O)O)C(=O)O)C(=O)O)C(N)=O)
2.5 nM	–	37 pM	6 pM	H[Ac4c]QGTFTSDVSKYLESRRAREFVQWLIK([γGlu-γGlu-AEEA-AEEA-γGlu-γGlu-C18 diacid])T-NH2 (N-terminus assumed; SMILES CC[C@H](C)[C@H](NC(=O)[C@H](CC(C)C)NC(=O)[C@H](Cc1c[nH]c2ccccc12)NC(=O)[C@H](CCC(N)=O)NC(=O)[C@@H](NC(=O)[C@H](Cc1ccccc1)NC(=O)[C@H](CCC(=O)O)NC(=O)[C@H](CCCNC(=N)N)NC(=O)[C@H](C)NC(=O)[C@H](CCCNC(=N)N)NC(=O)[C@H](CCCNC(=N)N)NC(=O)[C@H](CO)NC(=O)[C@H](CCC(=O)O)NC(=O)[C@H](CC(C)C)NC(=O)[C@H](Cc1ccc(O)cc1)NC(=O)[C@H](CCCCN)NC(=O)[C@H](CO)NC(=O)[C@@H](NC(=O)[C@H](CC(=O)O)NC(=O)[C@H](CO)NC(=O)[C@@H](NC(=O)[C@H](Cc1ccccc1)NC(=O)[C@@H](NC(=O)CNC(=O)[C@H](CCC(N)=O)NC(=O)C1(NC(=O)[C@@H](N)Cc2c[nH]cn2)CCC1)[C@@H](C)O)[C@@H](C)O)C(C)C)C(C)C)C(=O)N[C@@H](CCCCNC(=O)CC[C@H](NC(=O)CC[C@H](NC(=O)COCCOCCNC(=O)COCCOCCNC(=O)CC[C@H](NC(=O)CC[C@H](NC(=O)CCCCCCCCCCCCCCCCC(=O)O)C(=O)O)C(=O)O)C(=O)O)C(=O)O)C(=O)N[C@H](C(N)=O)[C@@H](C)O, also called Chem. 19; Chem 19)
1.7 nM	–	7 pM	4 pM	H[Aib]QGTFTSDLSKYLDARRARDFVQWLIK([γGlu-γGlu-γGlu-C18 diacid])T-NH2 (also called Chem. 15; Chem 15)
